Patent US7943574B2, “Cell-permeable peptide inhibitors of the JNK signal transduction pathway” (Xigen SA, priority 2002, dated 2011)
Entries after “also recorded” stand apart in the source; their conditions may differ. Residues, ends and D or L forms follow the SMILES beside them.

How the values were obtained:
[1] = target: T1, SH3 domain of IB1 (MKK7 binding) (Homo sapiens, UniProt Q9UQF2); test: Pull-down of 35S-labelled MKK7 on GST-SH3 domain of IB1; conditions: GST-SH3 domain of IB1, 35S-labelled MKK7 (FIG. 2)
T1 construct: the SH3 domains of IB1 and IB2 were subcloned using PCR into the pGEX-4T1 vector in frame with the GST; GST (N); made in house; host or cells: E. coli
T1 sequence (Q9UQF2 488-549 limits assumed): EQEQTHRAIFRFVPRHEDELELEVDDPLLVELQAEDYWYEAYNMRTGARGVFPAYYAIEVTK
Procedure: (§1) Effects of the αSH3 peptide on JNK biological activities were then studied. […] In the pull-down experiments, the SH3 domains of IB1 and IB2 were subcloned using PCR into the pGEX-4T1 vector in frame with the GST (Pharmacia). The recombinant proteins were produced in E. coli. Purification was performed in native conditions using a glutathione-agarose column (Pharmacia). ^35S-labelled MKK7 was then used in classical pull-down experiments.

[2] = target: T2, SH3 domain of IB2 (MKK7 binding) (Homo sapiens, UniProt Q13387); test: Pull-down of 35S-labelled MKK7 on GST-SH3 domain of IB2; conditions: GST-SH3 domain of IB2, 35S-labelled MKK7 (FIG. 2)
T2 construct: the SH3 domains of IB1 and IB2 were subcloned using PCR into the pGEX-4T1 vector in frame with the GST; GST (N); made in house; host or cells: E. coli
T2 sequence (Q13387 604-665 limits assumed): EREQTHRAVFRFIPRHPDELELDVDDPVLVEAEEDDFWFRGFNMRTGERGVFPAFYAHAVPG
Procedure: as §1

[3] = tested on: developing rat cortical neurons; test: Incubation of developing rat cortical neurons with peptide (toxicity, neuron number); conditions: 1 μM peptide, versus control developing rat cortical neurons (FIG. 4)

Molecule	blocking of the binding of MKK7 to IB1 [1]	blocking of the binding of MKK7 to IB2 [2]	toxicity on developing neurons (residual necrotic bodies) [3]
αSH3: consensus SH3 binding peptide, 12 aa, SVSVGMPPSP RP (SVSVGMPPSPRP)	efficiently blocks	efficiently blocks	
CSCC[C@H](NC(=O)CNC(=O)[C@@H](NC(=O)[C@H](CO)NC(=O)[C@@H](NC(=O)[C@H](CO)NC(=O)[C@H](CCCNC(=N)N)NC(=O)[C@H](CCCNC(=N)N)NC(=O)[C@H](CCCNC(=N)N)NC(=O)[C@H](CCC(N)=O)NC(=O)[C@H](CCCNC(=N)N)NC(=O)[C@H](CCCNC(=N)N)NC(=O)[C@H](CCCCN)NC(=O)[C@H](CCCCN)NC(=O)[C@@H](N)CCCNC(=N)N)C(C)C)C(C)C)C(=O)N1CCC[C@H]1C(=O)N1CCC[C@H]1C(=O)N[C@@H](CO)C(=O)N1CCC[C@H]1C(=O)N[C@@H](CCCNC(=N)N)C(=O)N1CCC[C@H]1C(=O)O [TAT-αSH3] (H-RKKRRQRRRSVSVGMPPSPRP-OH)			lacked residual necrotic bodies; also recorded: not toxic
